This is an account of results in US20080220459A1.

The target of the test is NC4-antiserum (rabbit polyclonal antiserum against the collagen alpha1 (IX) NC4-peptide coupled to KLH). The test can be described thus: inhibition ELISA: free NC4-peptide against binding of NC4-antiserum to solid-phase NC4-peptide. (An ELISA detects its analyte on a solid surface through an enzyme-linked reagent.)

In the case of H-CGQDDLPGFDLISQFQ-NH2 [NC4-peptide NH2-…^64-CONH2], the peptide concentration showing efficient inhibition of the binding came out at 0.3 ng/mL.
